# Assay results taken from patent publication US20260275317A1, “CHIMERIC ENDOLYSINS WITH ACTIVITY AGAINST STREPTOCOCCI AND STAPHYLOCOCCI” (UNIVERSITEIT GENT, priority 2023, published 2026).
# B1: NC5: chimeric endolysin SEQ ID NO: 17; HIV-1 TAT + PlySs2 CHAP + Ply1081 CW_7 + PlySs9 amidase_3 (protein)
# chain: MYGRKKRRQRRRGATTVNEALNNVRAQVGSGVSVGNGECYALASWYERMISPDATVGLGAGVGWVSGAIGDTISAKNIGSSYNWQANGWTVSTSGPFKAGQIVTLGATPGNPYGHVVIVEAVDGDRLTILEQNYGGKRYPVRNYYSAASYRQQVVHYITPPGTVAQSAPNLAGAGIDQLVQETLAGKYGNGEQRKAALGSQYQAVMAVINGKATAPKKTVDQLAQEVIQGKHGNGEDRKKSLGPDYDAVQKRVTEILKGSPSGNIPKTPSDAPKSEVVNSSTEPKTEETGANGKATDTKITKGSGKHLVICGHGQGRTGYDPGAVNAKLGITEAGKVRELSKLMSKYSGQQIDFITEQNVYDYRSITSIGKGYDSITELHFNAFNGSAKGTEVLIQSSLEADKEDMAILSLLSRYFQNRGIKKVDWLYNANQAASRGYTYRLVEIAFIDNEQDMAIFENKKEDIAKGLVSAITGVEVKTIVPSPPSSTVGSSGTPSKSIYLVGDSLRVLPHATHYQTGQKIANWVKGRTYKILQVKNVHQSNSKRAYLLDGIKSWVLEQDVEGTTKGHSKYHHHHHH
# How the values were obtained:
# [1] = test system: S. uberis, S. aureus, S. agalactiae and S. dysgalactiae; assay: 2 h time killing assay in PBS and UHT-milk, relative in vitro scoring; format: cell-based; settings: 0.25 μM
# Description: (§1) Concerning the time killing assay, an overnight bacterial culture was diluted 1:10 for S. uberis, S. agalactiae-& dysgalactiae or 1:100 for S. aureus in PBS or UHT-pasteurized whole cow's milk. A volume of 10 μL thereof was combined with an equal amount of chimeric endolysin in PBS (or only PBS as negative control) in triplicate and incubated in a covered 96-well microtiter plate at 37° C. for 2 h. […] Finally, these fractions were serially diluted 1:10 in PBS. 5 μL of each fraction was spotted on TSA or BHI-agar and incubated overnight at 37° C. The following day, colony forming units (CFU) were counted and converted to CFU/mL to calculate logarithmic reductions in comparison with the negative control. The relative scores were calculated by dividing the observed logarithmic reduction for each endolysin by the maximal reduction observed for that specific condition and strain. Next, this value was divided by the number of conditions and strains tested (i.e., 8=4 bacterial strains×2 conditions (PBS/UHT-milk)). As such, the best performing candidate in each individual assay received a score of 0.125 (=(1/1)/8). […] Turbidity reduction assays were performed by combining 100 μL of overnight grown bacterial cells with an equal volume of purified enzyme at the desired concentration. Bacterial cells were washed with PBS and resuspended in a 1:1 ratio with enzyme to an OD600 of approximately 1.0. Next, the OD600 was measured using a Tecan infinite 200 PRO plate reader (Tecan, Switzerland) every 15 seconds at 37° C., shaking the 96-well plate between each measurement.
# Stationary phase S. uberis 0140J or S. aureus N305 and one randomly chosen clinical isolate of S. uberis, S. aureus, S. agalactiae and S. dysgalactiae were challenged with a final concentration of 0.25 μM endolysin in a 2 h time killing assay (TKA) in both phosphate buffered saline (PBS) and ultra-high temperature pasteurized whole cow's milk (UHT-milk).
# S. agalactiae = assay: Time killing assay (TKA), S. agalactiae; format: cell-based, Streptococcus agalactiae; settings: 0.3 μM
# Description: as §1, with “milk.” for “milk. A volume of 10 μL thereof was combined with an equal amount of chimeric endolysin in PBS (or only PBS as negative control) in triplicate and incubated in a covered 96-well microtiter plate at 37° C. for 2 h.”
# (§2) Time killing and turbidity reduction assays were performed as previously described in 1.3.1.
# (§3) Time killing assays were performed as previously described in 1.3.1.
# S. dysgalactiae [2] = assay: Turbidity reduction assay (TRA), S. dysgalactiae; format: cell-based, Streptococcus dysgalactiae
# Description: Concerning the time killing assay, an overnight bacterial culture was diluted 1:10 for S. uberis, S. agalactiae-& dysgalactiae or 1:100 for S. aureus in PBS or UHT-pasteurized whole cow's milk. A volume of 10 μL thereof was combined with an equal amount of chimeric endolysin in PBS (or only PBS as negative control) in triplicate and incubated in a covered 96-well microtiter plate at 37° C. for 2 h. The dose was low (i.e. 0.25 μM), but this was chosen to differentiate between less and better performing variants, consequently allowing a ranking. Finally, these fractions were serially diluted 1:10 in PBS. 5 μL of each fraction was spotted on TSA or BHI-agar and incubated overnight at 37° C. The following day, colony forming units (CFU) were counted and converted to CFU/mL to calculate logarithmic reductions in comparison with the negative control. The relative scores were calculated by dividing the observed logarithmic reduction for each endolysin by the maximal reduction observed for that specific condition and strain. Next, this value was divided by the number of conditions and strains tested (i.e., 8=4 bacterial strains×2 conditions (PBS/UHT-milk)). As such, the best performing candidate in each individual assay received a score of 0.125 (=(1/1)/8). […] Turbidity reduction assays were performed by combining 100 μL of overnight grown bacterial cells with an equal volume of purified enzyme at the desired concentration. Bacterial cells were washed with PBS and resuspended in a 1:1 ratio with enzyme to an OD600 of approximately 1.0. Next, the OD600 was measured using a Tecan infinite 200 PRO plate reader (Tecan, Switzerland) every 15 seconds at 37° C., shaking the 96-well plate between each measurement.
# as §2
# S. dysgalactiae [3] = assay: Time killing assay (TKA), S. dysgalactiae; format: cell-based, Streptococcus dysgalactiae; settings: 0.3 μM
# Description: as §1, with “milk.” for “milk. A volume of 10 μL thereof was combined with an equal amount of chimeric endolysin in PBS (or only PBS as negative control) in triplicate and incubated in a covered 96-well microtiter plate at 37° C. for 2 h.”
# as §2, §3
# [4] = test system: S. uberis in mastitic raw cow's milk; assay: Challenge of mastitic raw cow's milk; format: cell-based, Streptococcus uberis; settings: milk of 4 cows, 8 h; 0.5 μM NC5, 50 μg/mL cloxacillin or both
# Description: Raw cow's milk from S. uberis infected dairy cows was supplied by the milk control center of Flanders (MCC Vlaanderen). Upon arrival, the milk was serially diluted and plated on BHI agar to determine the bacterial load. Only milk with >10^5 […] CFU/mL S. uberis was included as a selection criterium. If needed, the raw milk was incubated during 8 h at 37° C. to artificially increase the initial bacterial load. […] Upon incubation at 37° C., every 2 h, 20 μL was transferred from each well to 180 μL dPBS, serially diluted and plated on BHI agar. Plates were incubated overnight and CFU/mL were calculated the next day. Undiluted, mastitic milk was always pipetted with ClipTip Pipette Tips (Westburg, The Netherlands) due to high viscosity. Mastitis isolates were confirmed as S. uberis by MALDI-TOF MS biotyping.
molecule,measurement,setting,value
B1,ranking by cumulative relative in vitro score,[1],overall best performing candidates
same,ΔLog10 (CFU/mL),"S. agalactiae; S. agalactiae 1, 1 h",1.49 Log10 (CFU/mL)
same,ΔLog10 (CFU/mL),"S. agalactiae; S. agalactiae 2, 1 h",1.50 Log10 (CFU/mL)
same,ΔLog10 (CFU/mL),"S. agalactiae; S. agalactiae 3, 1 h",0.00 Log10 (CFU/mL)
same,log10 reduction,"S. agalactiae; mastitis-derived S. agalactiae, versus PBS",1.50±0.12 log10
same,"Δ log10, reductions up to",S. agalactiae; three clinical S. agalactiae isolates,≤ 1.50±0.02 log10
same,lysis speed (ΔOD600/min)/μM,"S. dysgalactiae [2]; S. dysgalactiae 1, 0.3 μM",0.25 (ΔOD600/min)/μM
same,ΔOD600,"S. dysgalactiae [2]; S. dysgalactiae 1, 1 h, 0.3 μM",0.48
same,lysis speed (ΔOD600/min)/μM,"S. dysgalactiae [2]; S. dysgalactiae 2, 0.3 μM",0.30 (ΔOD600/min)/μM
same,ΔOD600,"S. dysgalactiae [2]; S. dysgalactiae 2, 1 h, 0.3 μM",0.66
same,lysis speed (ΔOD600/min)/μM,"S. dysgalactiae [2]; S. dysgalactiae 3, 0.3 μM",0.25 (ΔOD600/min)/μM
same,ΔOD600,"S. dysgalactiae [2]; S. dysgalactiae 3, 1 h, 0.3 μM",0.51
same,"ΔOD, reductions up to","S. dysgalactiae [2]; three clinical S. dysgalactiae isolates, 0.3 μM",≤ 0.48±0.03
same,ΔLog10 (CFU/mL),"S. dysgalactiae [3]; S. dysgalactiae 1, 1 h",1.77 Log10 (CFU/mL)
same,ΔLog10 (CFU/mL),"S. dysgalactiae [3]; S. dysgalactiae 2, 1 h",0.15 Log10 (CFU/mL)
same,ΔLog10 (CFU/mL),"S. dysgalactiae [3]; S. dysgalactiae 3, 1 h",1.11 Log10 (CFU/mL)
same,log10 reduction,"S. dysgalactiae [3]; mastitis-derived S. dysgalactiae, versus PBS",1.11±0.17 log10
same,"Δ log10, reductions up to",S. dysgalactiae [3]; three clinical S. dysgalactiae isolates,≤ 1.77±0.43 log10
same,log10 reduction of S. uberis versus PBS control,[4],caused a log10 reduction in all mastitic milk samples after 8 h
